Like-named read-outs stand apart in the source and are kept apart here.

Test in all cases: MST
For assay [1], the target named is EphA2 intracellular region (ICR), wildtype, phosphorylated (human) (UniProt P29317).
The target in assay [2] is EphA2 intracellular region (ICR), kinase-dead (D739N) (human) (UniProt P29317).
Assay [3] has as its target EphA2 ICRΔSAM, wildtype, phosphorylated (human).
The target of assay [4] is EphA2 ICRΔSAM, kinase-dead (D739N) (human).
Assay [5] addresses EphA2 ICRΔSAM, wildtype, phosphorylated (human). This is another data set of the same source.
Target sequence in this assay (P29317 899-973, stated change not applied): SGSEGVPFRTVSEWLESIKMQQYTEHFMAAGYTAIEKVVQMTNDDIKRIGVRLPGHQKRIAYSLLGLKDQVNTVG

In general, Kd refers to the free concentration of one partner at which half of the binding sites on the other are occupied at equilibrium, for simple one-to-one binding. Low values mean higher affinity, high ones lower affinity. Molecule “EphA2 intracellular region (ICR), wildtype, phosphorylated (from UniProt P29317 559-976) (domain or fragment)” came in with a dissociation constant (Kd) in assay [1] of 15 µM.

In assay [2], “EphA2 intracellular region (ICR), kinase-dead (D739N) (from UniProt P29317 559-976) (domain or fragment)” returned a dissociation constant (Kd) of 1.3 µM.

Molecule “EphA2 ICRΔSAM, wildtype, phosphorylated (domain or fragment)” yielded a Kd in assay [3] of 5.4 µM.

In assay [4], “EphA2 ICRΔSAM, kinase-dead (D739N) (domain or fragment)” showed a dissociation constant Kd of 1 µM. That is a single-digit micromolar value.

B1: SHIP2 SAM domain (isolated) (domain or fragment)
chain: GMSAWLRAIGLERYEEGLVHNGWDDLEFLSDITEEDLEEAGVQDPAHKRLLLDTLQLSK
In assay [5], B1 had an equilibrium dissociation constant (Kd) of 7.5 µM. This counts as single-digit micromolar.

Values taken from article doi:10.1101/2025.09.29.679228.
